{"source": "paper PMC10935721", "origin": "cited, not measured here", "system": "Tyr32", "conditions": "reduced (non-radical) X32"}
{"substance": "α3Y (de novo three-helix bundle with Tyr32) (synthetic construct (de novo designed))", "values": [{"measurement": "pKa", "result": "11.3 (±0.1)"}]}
